# Test results published in paper PMC9046087, “Structural basis of tethered agonism of the adhesion GPCRs ADGRD1 and ADGRF1” (Nature, 2022).
# System: ADGRF1
# Experiment: Cell-surface expression by flow cytometry, ADGRF1
# Type: cell-based, human
# Details: ADGRF1 constructs (pF1 Gi part of table), anti-Flag antibody, three independent measurements in duplicate
# Experimental: The wild-type ADGRD1 and ADGRF1 and mutants used in functional studies were constructed into a pTT5 vector with a Flag tag at the N terminus for receptor expression measurement. The basal activity of ADGRD1 and ADGRF1 in mediating Gs signalling was measured by a cAMP accumulation assay using a LANCE Ultra cAMP detection kit (PerkinElmer) following the manufacturer’s instruction. In brief, 2 ml HEK293F cells (Invitrogen; cells were routinely tested for mycoplasma contamination) at a density of 1.2 × 10^6 cells per ml were transiently transfected with 2,000 ng plasmid of the wild-type or mutant receptor and cultured at 37 °C for 48 h with 5% CO2 atmosphere in a shaker shaking at 220 rpm. After collection, the cell-surface expression of the receptors was measured by incubating 10 μl cells with 15 μl monoclonal anti-Flag M2-FITC antibody (Sigma; 1:120 diluted in TBS supplemented with 4% BSA and 20% viability staining solution 7-AAD (Invitrogen)) at 4 °C for 20 min. After incubation, 175 μl TBS buffer was added and the fluorescent signal was measured using a flow cytometry reader (Guava easyCyte HT, Millipore).
row,Molecule,Cell-surface expression (% of WT)
1,"V585^1.36bA (protein, UniProt Q5T601 20-910, looked up, variant V585A) Adhesion G-protein coupled …: GFLGKNDGIKTKKELIVNKKKHLGPVEEYQLLLQVTYRDSKEKRDLRNFLKLLKPPLLWSHGLIRIIRAKATTDCNSLNGVLQCTCEDSYTWFPPSCLDPQNCYLHTAGALPSCECHLNNLSQSVNFCERTKIWGTFKINERFTNDLLNSSSAIYSKYANGIEIQLKKAYERIQGFESVQVTQFRNGSIVAGYEVVGSSSASELLSAIEHVAEKAKTALHKLFPLEDGSFRVFGKAQCNDIVFGFGSKDDEYTLPCSSGYRGNITAKCESSGWQVIRETCVLSLLEELNKNFSMIVGNATEAAVSSFVQNLSVIIRQNPSTTVGNLASVVSILSNISSLSLASHFRVSNSTMEDVISIADNILNSASVTNWTVLLREEKYASSRLLETLENISTLVPPTALPLNFSRKFIDWKGIPVNKSQLKRGYSYQIKMCPQNTSIPIRGRVLIGSDQFQRSLPETIISMASLTLGNILPVSKNGNAQVNGPVISTVIQNYSINEVFLFFSKIESNLSQPHCVFWDFSHLQWNDAGCHLVNETQDIVTCQCTHLTSFSILMSPFVPSTIFPVAKWITYVGLGISIGSLILCLIIEALFWKQIKKSQTSHTRRICMVNIALSLLIADVWFIVGATVDTTVNPSGVCTAAVFFTHFFYLSLFFWMLMLGILLAYRIILVFHHMAQHLMMAVGFCLGYGCPLIISVITIAVTQPSNTYKRKDVCWLNWSNGSKPLLAFVVPALAIVAVNFVVVLLVLTKLWRPTVGERLSRDDKATIIRVGKSLLILTPLLGLTWGFGIGTIVDSQNLAWHVIFALLNAFQGFFILCFGILLDSKLRQLLFNKLSALSSWKQTEKQNSSDLSAKPKFSKPFNPLQNKGHYAFSHTGDSSDNIMLTQFVSNE",91 ± 21 % of WT
2,"F641^2.64bA (protein, UniProt Q5T601 20-910, looked up, variant F641A) Adhesion G-protein coupled …: GFLGKNDGIKTKKELIVNKKKHLGPVEEYQLLLQVTYRDSKEKRDLRNFLKLLKPPLLWSHGLIRIIRAKATTDCNSLNGVLQCTCEDSYTWFPPSCLDPQNCYLHTAGALPSCECHLNNLSQSVNFCERTKIWGTFKINERFTNDLLNSSSAIYSKYANGIEIQLKKAYERIQGFESVQVTQFRNGSIVAGYEVVGSSSASELLSAIEHVAEKAKTALHKLFPLEDGSFRVFGKAQCNDIVFGFGSKDDEYTLPCSSGYRGNITAKCESSGWQVIRETCVLSLLEELNKNFSMIVGNATEAAVSSFVQNLSVIIRQNPSTTVGNLASVVSILSNISSLSLASHFRVSNSTMEDVISIADNILNSASVTNWTVLLREEKYASSRLLETLENISTLVPPTALPLNFSRKFIDWKGIPVNKSQLKRGYSYQIKMCPQNTSIPIRGRVLIGSDQFQRSLPETIISMASLTLGNILPVSKNGNAQVNGPVISTVIQNYSINEVFLFFSKIESNLSQPHCVFWDFSHLQWNDAGCHLVNETQDIVTCQCTHLTSFSILMSPFVPSTIFPVVKWITYVGLGISIGSLILCLIIEALFWKQIKKSQTSHTRRICMVNIALSLLIADVWAIVGATVDTTVNPSGVCTAAVFFTHFFYLSLFFWMLMLGILLAYRIILVFHHMAQHLMMAVGFCLGYGCPLIISVITIAVTQPSNTYKRKDVCWLNWSNGSKPLLAFVVPALAIVAVNFVVVLLVLTKLWRPTVGERLSRDDKATIIRVGKSLLILTPLLGLTWGFGIGTIVDSQNLAWHVIFALLNAFQGFFILCFGILLDSKLRQLLFNKLSALSSWKQTEKQNSSDLSAKPKFSKPFNPLQNKGHYAFSHTGDSSDNIMLTQFVSNE",82 ± 19 % of WT
3,"T589^1.40bA (protein, UniProt Q5T601 20-910, looked up, variant T589A) Adhesion G-protein coupled …: GFLGKNDGIKTKKELIVNKKKHLGPVEEYQLLLQVTYRDSKEKRDLRNFLKLLKPPLLWSHGLIRIIRAKATTDCNSLNGVLQCTCEDSYTWFPPSCLDPQNCYLHTAGALPSCECHLNNLSQSVNFCERTKIWGTFKINERFTNDLLNSSSAIYSKYANGIEIQLKKAYERIQGFESVQVTQFRNGSIVAGYEVVGSSSASELLSAIEHVAEKAKTALHKLFPLEDGSFRVFGKAQCNDIVFGFGSKDDEYTLPCSSGYRGNITAKCESSGWQVIRETCVLSLLEELNKNFSMIVGNATEAAVSSFVQNLSVIIRQNPSTTVGNLASVVSILSNISSLSLASHFRVSNSTMEDVISIADNILNSASVTNWTVLLREEKYASSRLLETLENISTLVPPTALPLNFSRKFIDWKGIPVNKSQLKRGYSYQIKMCPQNTSIPIRGRVLIGSDQFQRSLPETIISMASLTLGNILPVSKNGNAQVNGPVISTVIQNYSINEVFLFFSKIESNLSQPHCVFWDFSHLQWNDAGCHLVNETQDIVTCQCTHLTSFSILMSPFVPSTIFPVVKWIAYVGLGISIGSLILCLIIEALFWKQIKKSQTSHTRRICMVNIALSLLIADVWFIVGATVDTTVNPSGVCTAAVFFTHFFYLSLFFWMLMLGILLAYRIILVFHHMAQHLMMAVGFCLGYGCPLIISVITIAVTQPSNTYKRKDVCWLNWSNGSKPLLAFVVPALAIVAVNFVVVLLVLTKLWRPTVGERLSRDDKATIIRVGKSLLILTPLLGLTWGFGIGTIVDSQNLAWHVIFALLNAFQGFFILCFGILLDSKLRQLLFNKLSALSSWKQTEKQNSSDLSAKPKFSKPFNPLQNKGHYAFSHTGDSSDNIMLTQFVSNE",83 ± 3 % of WT
4,"L593^1.47bA (protein, UniProt Q5T601 20-910, looked up, variant L593A) Adhesion G-protein coupled …: GFLGKNDGIKTKKELIVNKKKHLGPVEEYQLLLQVTYRDSKEKRDLRNFLKLLKPPLLWSHGLIRIIRAKATTDCNSLNGVLQCTCEDSYTWFPPSCLDPQNCYLHTAGALPSCECHLNNLSQSVNFCERTKIWGTFKINERFTNDLLNSSSAIYSKYANGIEIQLKKAYERIQGFESVQVTQFRNGSIVAGYEVVGSSSASELLSAIEHVAEKAKTALHKLFPLEDGSFRVFGKAQCNDIVFGFGSKDDEYTLPCSSGYRGNITAKCESSGWQVIRETCVLSLLEELNKNFSMIVGNATEAAVSSFVQNLSVIIRQNPSTTVGNLASVVSILSNISSLSLASHFRVSNSTMEDVISIADNILNSASVTNWTVLLREEKYASSRLLETLENISTLVPPTALPLNFSRKFIDWKGIPVNKSQLKRGYSYQIKMCPQNTSIPIRGRVLIGSDQFQRSLPETIISMASLTLGNILPVSKNGNAQVNGPVISTVIQNYSINEVFLFFSKIESNLSQPHCVFWDFSHLQWNDAGCHLVNETQDIVTCQCTHLTSFSILMSPFVPSTIFPVVKWITYVGAGISIGSLILCLIIEALFWKQIKKSQTSHTRRICMVNIALSLLIADVWFIVGATVDTTVNPSGVCTAAVFFTHFFYLSLFFWMLMLGILLAYRIILVFHHMAQHLMMAVGFCLGYGCPLIISVITIAVTQPSNTYKRKDVCWLNWSNGSKPLLAFVVPALAIVAVNFVVVLLVLTKLWRPTVGERLSRDDKATIIRVGKSLLILTPLLGLTWGFGIGTIVDSQNLAWHVIFALLNAFQGFFILCFGILLDSKLRQLLFNKLSALSSWKQTEKQNSSDLSAKPKFSKPFNPLQNKGHYAFSHTGDSSDNIMLTQFVSNE",90 ± 6 % of WT
5,"Y668^3.40bA (protein, UniProt Q5T601 20-910, looked up, variant Y668A) Adhesion G-protein coupled …: GFLGKNDGIKTKKELIVNKKKHLGPVEEYQLLLQVTYRDSKEKRDLRNFLKLLKPPLLWSHGLIRIIRAKATTDCNSLNGVLQCTCEDSYTWFPPSCLDPQNCYLHTAGALPSCECHLNNLSQSVNFCERTKIWGTFKINERFTNDLLNSSSAIYSKYANGIEIQLKKAYERIQGFESVQVTQFRNGSIVAGYEVVGSSSASELLSAIEHVAEKAKTALHKLFPLEDGSFRVFGKAQCNDIVFGFGSKDDEYTLPCSSGYRGNITAKCESSGWQVIRETCVLSLLEELNKNFSMIVGNATEAAVSSFVQNLSVIIRQNPSTTVGNLASVVSILSNISSLSLASHFRVSNSTMEDVISIADNILNSASVTNWTVLLREEKYASSRLLETLENISTLVPPTALPLNFSRKFIDWKGIPVNKSQLKRGYSYQIKMCPQNTSIPIRGRVLIGSDQFQRSLPETIISMASLTLGNILPVSKNGNAQVNGPVISTVIQNYSINEVFLFFSKIESNLSQPHCVFWDFSHLQWNDAGCHLVNETQDIVTCQCTHLTSFSILMSPFVPSTIFPVVKWITYVGLGISIGSLILCLIIEALFWKQIKKSQTSHTRRICMVNIALSLLIADVWFIVGATVDTTVNPSGVCTAAVFFTHFFALSLFFWMLMLGILLAYRIILVFHHMAQHLMMAVGFCLGYGCPLIISVITIAVTQPSNTYKRKDVCWLNWSNGSKPLLAFVVPALAIVAVNFVVVLLVLTKLWRPTVGERLSRDDKATIIRVGKSLLILTPLLGLTWGFGIGTIVDSQNLAWHVIFALLNAFQGFFILCFGILLDSKLRQLLFNKLSALSSWKQTEKQNSSDLSAKPKFSKPFNPLQNKGHYAFSHTGDSSDNIMLTQFVSNE",67 ± 1 % of WT
6,"W734^ECL2A (protein, UniProt Q5T601 20-910, looked up, variant W734A) Adhesion G-protein coupled …: GFLGKNDGIKTKKELIVNKKKHLGPVEEYQLLLQVTYRDSKEKRDLRNFLKLLKPPLLWSHGLIRIIRAKATTDCNSLNGVLQCTCEDSYTWFPPSCLDPQNCYLHTAGALPSCECHLNNLSQSVNFCERTKIWGTFKINERFTNDLLNSSSAIYSKYANGIEIQLKKAYERIQGFESVQVTQFRNGSIVAGYEVVGSSSASELLSAIEHVAEKAKTALHKLFPLEDGSFRVFGKAQCNDIVFGFGSKDDEYTLPCSSGYRGNITAKCESSGWQVIRETCVLSLLEELNKNFSMIVGNATEAAVSSFVQNLSVIIRQNPSTTVGNLASVVSILSNISSLSLASHFRVSNSTMEDVISIADNILNSASVTNWTVLLREEKYASSRLLETLENISTLVPPTALPLNFSRKFIDWKGIPVNKSQLKRGYSYQIKMCPQNTSIPIRGRVLIGSDQFQRSLPETIISMASLTLGNILPVSKNGNAQVNGPVISTVIQNYSINEVFLFFSKIESNLSQPHCVFWDFSHLQWNDAGCHLVNETQDIVTCQCTHLTSFSILMSPFVPSTIFPVVKWITYVGLGISIGSLILCLIIEALFWKQIKKSQTSHTRRICMVNIALSLLIADVWFIVGATVDTTVNPSGVCTAAVFFTHFFYLSLFFWMLMLGILLAYRIILVFHHMAQHLMMAVGFCLGYGCPLIISVITIAVTQPSNTYKRKDVCALNWSNGSKPLLAFVVPALAIVAVNFVVVLLVLTKLWRPTVGERLSRDDKATIIRVGKSLLILTPLLGLTWGFGIGTIVDSQNLAWHVIFALLNAFQGFFILCFGILLDSKLRQLLFNKLSALSSWKQTEKQNSSDLSAKPKFSKPFNPLQNKGHYAFSHTGDSSDNIMLTQFVSNE",87 ± 1 % of WT
